Test [1] deals with T1, recombinant human SEZ6L2 (extracellular portion of human SEZ6L2 fused to six C-terminal histidine-tag repeats) (human, UniProt Q6UXD5 28-844).
T1 construct: also called SEZ6L2-his; recombinant SEZ6L2
Put plainly: BLI (ForteBio Octet Red96), antibody on Protein A biosensors, recombinant target protein in solution. A general note: Biolayer interferometry detects binding as a change in optical thickness at a sensor tip.

For test [2], the target named is T2, recombinant cynomolgus monkey SEZ6L2 (cynomolgus monkey, UniProt G7Q0V6 28-844).
T2 construct: The construct is not described; also called cynomolgus monkey SEZL2
Described as above.

Test [3] deals with T3, human SEZ6L on cells (293-SEZ6L) (human, UniProt Q9BYH1 29-1024).
T3 construct: whole, on cells; also called Seizure 6-like Protein
T3 sequence (looked up): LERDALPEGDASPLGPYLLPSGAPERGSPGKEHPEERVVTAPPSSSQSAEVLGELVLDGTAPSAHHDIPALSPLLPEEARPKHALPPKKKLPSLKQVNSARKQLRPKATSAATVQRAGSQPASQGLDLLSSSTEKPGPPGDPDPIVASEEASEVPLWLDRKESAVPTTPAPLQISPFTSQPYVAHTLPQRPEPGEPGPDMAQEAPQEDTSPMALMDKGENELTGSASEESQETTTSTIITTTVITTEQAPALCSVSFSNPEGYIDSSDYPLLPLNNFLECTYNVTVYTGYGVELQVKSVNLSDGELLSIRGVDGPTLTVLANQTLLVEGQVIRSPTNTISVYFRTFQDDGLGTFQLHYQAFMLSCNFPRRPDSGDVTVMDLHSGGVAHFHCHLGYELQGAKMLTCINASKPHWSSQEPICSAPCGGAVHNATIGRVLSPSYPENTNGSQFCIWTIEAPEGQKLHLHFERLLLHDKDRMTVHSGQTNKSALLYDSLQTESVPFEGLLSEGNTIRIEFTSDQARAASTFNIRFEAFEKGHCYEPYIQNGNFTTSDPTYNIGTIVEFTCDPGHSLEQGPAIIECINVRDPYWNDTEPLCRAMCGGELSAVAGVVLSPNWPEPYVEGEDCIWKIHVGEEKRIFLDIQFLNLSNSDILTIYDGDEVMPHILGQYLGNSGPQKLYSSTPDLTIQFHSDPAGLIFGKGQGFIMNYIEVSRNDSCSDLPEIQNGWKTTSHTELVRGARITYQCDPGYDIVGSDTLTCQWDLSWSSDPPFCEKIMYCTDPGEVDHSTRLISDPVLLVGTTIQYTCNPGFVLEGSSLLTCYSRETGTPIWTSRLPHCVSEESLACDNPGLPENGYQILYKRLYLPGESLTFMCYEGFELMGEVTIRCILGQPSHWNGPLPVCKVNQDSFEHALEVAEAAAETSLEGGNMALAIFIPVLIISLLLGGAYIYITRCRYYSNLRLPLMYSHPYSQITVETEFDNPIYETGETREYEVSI
Put plainly: flow cytometry on live 293-SEZ6L cells, Alexa Fluor 488 anti-human IgG secondary [panel A]. On the technique in general: A flow cytometer gives signals particle by particle.

Test [4] deals with T4, human SEZ6 on cells (293-SEZ6) (human, UniProt Q53EL9 20-994).
T4 construct: whole, on cells; also called Seizure Protein 6 Homolog
T4 sequence (looked up): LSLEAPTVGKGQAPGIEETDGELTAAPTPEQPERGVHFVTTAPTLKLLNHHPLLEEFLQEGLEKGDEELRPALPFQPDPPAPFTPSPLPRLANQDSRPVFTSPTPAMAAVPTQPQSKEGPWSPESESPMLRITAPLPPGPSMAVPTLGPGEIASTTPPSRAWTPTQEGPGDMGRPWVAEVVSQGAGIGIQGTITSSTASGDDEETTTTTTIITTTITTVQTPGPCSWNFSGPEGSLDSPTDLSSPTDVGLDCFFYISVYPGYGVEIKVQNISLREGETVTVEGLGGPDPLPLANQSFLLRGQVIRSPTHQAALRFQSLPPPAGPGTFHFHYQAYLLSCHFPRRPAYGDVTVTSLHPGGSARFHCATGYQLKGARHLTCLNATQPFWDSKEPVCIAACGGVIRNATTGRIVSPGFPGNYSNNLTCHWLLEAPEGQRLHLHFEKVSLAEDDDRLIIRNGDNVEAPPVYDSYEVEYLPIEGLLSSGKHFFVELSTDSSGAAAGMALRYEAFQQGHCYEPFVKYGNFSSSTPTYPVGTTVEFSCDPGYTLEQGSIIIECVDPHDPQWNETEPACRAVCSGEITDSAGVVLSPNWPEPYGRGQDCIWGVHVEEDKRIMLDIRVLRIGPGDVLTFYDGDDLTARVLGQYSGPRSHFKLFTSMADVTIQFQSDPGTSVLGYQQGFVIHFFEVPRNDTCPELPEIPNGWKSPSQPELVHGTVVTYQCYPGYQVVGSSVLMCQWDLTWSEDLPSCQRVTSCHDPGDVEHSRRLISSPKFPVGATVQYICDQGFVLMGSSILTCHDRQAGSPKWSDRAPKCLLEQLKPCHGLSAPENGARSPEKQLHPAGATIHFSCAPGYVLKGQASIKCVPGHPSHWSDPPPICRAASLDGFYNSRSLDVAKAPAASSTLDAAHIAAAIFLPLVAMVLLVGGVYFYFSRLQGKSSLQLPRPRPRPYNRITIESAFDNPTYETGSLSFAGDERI
Put plainly: flow cytometry on live 293-SEZ6 cells, Alexa Fluor 488 anti-human IgG secondary [panel A].

For test [5], the target named is T5, human SEZ6L2 on cells (293-SEZ6L2, HEK 293 cells transfected with human SEZ6L2, and SEZ6L2-expressing tumor … (human, UniProt Q6UXD5 28-910)).
T5 construct: Tumor cell lines express the endogenous protein; also called hSEZ6L2
Nature of the test: flow cytometry on live 293-SEZ6L2 cells, primary antibody 1 ug/ml, Alexa Fluor 488 anti-human IgG secondary [continued), panel F].

For test [6], the target named is T4, human SEZ6 on cells (293-SEZ6). Put plainly: flow cytometry on live 293-SEZ6 cells, Alexa Fluor 488 anti-human IgG secondary [continued), panel F].
Test [7] addresses T3, human SEZ6L on cells (293-SEZ6L). Put plainly: flow cytometry on live 293-SEZ6L cells, Alexa Fluor 488 anti-human IgG secondary [continued), panel F].
The target in test [8] is T4, human SEZ6 on cells (293-SEZ6). Nature of the test: flow cytometry on live 293-SEZ6 cells, Alexa Fluor 488 anti-human IgG secondary [continued), panel H].
Test [9] has as its target T3, human SEZ6L on cells (293-SEZ6L). Put plainly: flow cytometry on live 293-SEZ6L cells, Alexa Fluor 488 anti-human IgG secondary [continued), panel H].
Test [10] deals with T5, human SEZ6L2 on cells (293-SEZ6L2, HEK …). Put plainly: flow cytometry on live 293-SEZ6L2 cells, primary antibody 1 ug/ml, Alexa Fluor 488 anti-human IgG secondary [continued), panel H].
Test [11] has the same target. Put plainly: flow cytometry on live 293-SEZ6L2 cells, primary antibody 1 ug/ml, Alexa Fluor 488 anti-human IgG secondary [continued), panel G].
Test [12] concerns the target T3, human SEZ6L on cells (293-SEZ6L). Put plainly: flow cytometry on live 293-SEZ6L cells, Alexa Fluor 488 anti-human IgG secondary [continued), panel G].
The target of test [13] is T4, human SEZ6 on cells (293-SEZ6). Nature of the test: flow cytometry on live 293-SEZ6 cells, Alexa Fluor 488 anti-human IgG secondary [continued), panel G].
Test [14] concerns the target T5, human SEZ6L2 on cells (293-SEZ6L2, HEK …). Nature of the test: immunofluorescence and flow cytometry on HEK 293 cells transfected with human SEZ6L2 against untransfected cells.
Test [15] addresses T3, human SEZ6L on cells (293-SEZ6L). Nature of the test: flow cytometry on live 293-SEZ6L cells, Alexa Fluor 488 anti-human IgG secondary [continued), panel I].
Test [16] addresses T4, human SEZ6 on cells (293-SEZ6). Nature of the test: flow cytometry on live 293-SEZ6 cells, Alexa Fluor 488 anti-human IgG secondary [continued), panel I].

T5 sequence (Q6UXD5 28-910): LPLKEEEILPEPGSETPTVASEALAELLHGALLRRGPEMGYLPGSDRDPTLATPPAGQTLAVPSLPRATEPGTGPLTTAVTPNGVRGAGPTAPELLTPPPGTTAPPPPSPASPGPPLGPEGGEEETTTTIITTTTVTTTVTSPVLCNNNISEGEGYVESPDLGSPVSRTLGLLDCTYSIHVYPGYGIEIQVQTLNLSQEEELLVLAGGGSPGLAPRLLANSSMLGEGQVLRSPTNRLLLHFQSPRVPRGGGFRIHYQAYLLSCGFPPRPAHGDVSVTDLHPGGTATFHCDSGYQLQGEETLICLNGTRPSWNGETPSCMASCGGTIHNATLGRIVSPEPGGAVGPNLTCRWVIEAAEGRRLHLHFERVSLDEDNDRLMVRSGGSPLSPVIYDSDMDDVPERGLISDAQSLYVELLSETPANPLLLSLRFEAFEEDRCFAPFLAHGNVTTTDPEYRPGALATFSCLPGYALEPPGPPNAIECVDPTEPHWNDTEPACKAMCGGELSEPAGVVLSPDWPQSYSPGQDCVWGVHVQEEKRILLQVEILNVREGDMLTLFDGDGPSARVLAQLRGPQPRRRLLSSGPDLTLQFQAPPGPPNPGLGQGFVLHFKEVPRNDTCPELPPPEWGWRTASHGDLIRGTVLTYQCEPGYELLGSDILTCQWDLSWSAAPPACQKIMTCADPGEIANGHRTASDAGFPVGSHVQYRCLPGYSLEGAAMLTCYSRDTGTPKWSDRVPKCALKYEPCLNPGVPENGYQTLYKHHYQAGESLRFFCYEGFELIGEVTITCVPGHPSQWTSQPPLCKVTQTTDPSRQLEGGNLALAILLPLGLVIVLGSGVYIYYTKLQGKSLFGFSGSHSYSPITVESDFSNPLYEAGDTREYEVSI
T1 sequence (Q6UXD5 other isoform, or with tags, fused parts or gaps): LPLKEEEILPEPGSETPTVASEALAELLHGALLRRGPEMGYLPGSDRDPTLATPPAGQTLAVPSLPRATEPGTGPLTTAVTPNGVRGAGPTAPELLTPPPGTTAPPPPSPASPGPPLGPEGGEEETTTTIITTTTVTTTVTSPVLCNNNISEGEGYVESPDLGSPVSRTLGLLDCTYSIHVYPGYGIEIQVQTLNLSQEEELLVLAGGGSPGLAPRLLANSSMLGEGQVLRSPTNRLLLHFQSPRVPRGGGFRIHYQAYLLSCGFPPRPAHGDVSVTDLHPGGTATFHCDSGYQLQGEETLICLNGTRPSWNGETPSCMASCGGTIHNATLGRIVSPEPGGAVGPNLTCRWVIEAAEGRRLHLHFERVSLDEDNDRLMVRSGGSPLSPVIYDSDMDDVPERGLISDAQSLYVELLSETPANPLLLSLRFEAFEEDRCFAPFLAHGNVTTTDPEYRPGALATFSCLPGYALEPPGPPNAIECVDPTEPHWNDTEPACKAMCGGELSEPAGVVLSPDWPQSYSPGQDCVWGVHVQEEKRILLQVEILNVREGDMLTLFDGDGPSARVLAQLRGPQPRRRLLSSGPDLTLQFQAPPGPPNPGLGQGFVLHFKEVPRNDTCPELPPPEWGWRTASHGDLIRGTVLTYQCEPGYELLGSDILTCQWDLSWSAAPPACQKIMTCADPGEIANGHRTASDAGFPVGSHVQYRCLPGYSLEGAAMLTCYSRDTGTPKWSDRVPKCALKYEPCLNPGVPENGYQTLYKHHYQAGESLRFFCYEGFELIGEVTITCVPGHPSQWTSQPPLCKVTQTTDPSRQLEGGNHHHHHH

B1: human anti-SEZ6L2 antibody 1A1 (antibody, V domains shown)
VH: QVQLVQSGAEVKKPGASVKVSCKASGYTFTGYYMFWVRQAPGQGLEWLGWINPNSGGTDYAQKFQGRVTMTRDTSISTAYMELSRLRSDDTAVYYCARDSGYDWFFDYWGQGTLVTVSS
VL: not shown
notes: Fully human antibody from H2L2 mice, expressed recombinantly; it was captured on Protein A and detected with anti-human IgG
As for B1, the Kd in test [1] and in test [2] was 1 nM throughout. For the same molecule, the binding result in [3] and in test [4] was “no binding (tested: 1 ug/ml)” throughout.

B2: human anti-SEZ6L2 antibody 3B1 (antibody, V domains shown)
VH: QVQLVESGGGVVQPGRSLRLTCVVSGFAFSSYGMHWVRQAPGKGLEWVAVIWYDGSNKYYADSVKGRFTISRDNSKNTLYLQMNSLRAEDTAVYYCASLDYYGSGSRFDPWGQGTLVTVSS
VL: not shown
notes: Fully human antibody from H2L2 mice
With B2, the binding result is “binds” in test [5], “no binding (tested: 1 ug/ml)” in [6] and “no binding (tested: 1 ug/ml)” in test [7].

B3: human anti-SEZ6L2 antibody 3B6 (antibody, V domains shown)
VH: QVQLVQSGAEVKKPGASVKVSCKASGYTFTAYYMHWVRQAPGQGLEWMGWINPNSGGTNYAQKFQGRVTMTRDTSIDTAYLDLSRLRSDDTAVYYCAKDSGYDWYFDIWGRGTLVTVSS
VL: EIVLTQSPATLSLSPGERATLSCRASQNISSYLAWYQQKPGQAPRLLIYDASNRATGIPARFSGSGSGTDFTLTISSLEPEDFAVFYCQQHSNWPPLTFGGGTKVEIKR
notes: as for B2
In the case of B3, the binding result is “no binding (tested: 1 ug/ml)” in [8], “no binding (tested: 1 ug/ml)” in [9] and “binds” in test [10].

B4: human anti-SEZ6L2 antibody 3B3 (antibody, V domains shown)
VH: EVQLVESGGGLVQPGGSLRLSCAASGFTFSSYWMSWVRQAPGKGLEWVANIKQDGSEKYYVDSVKGRFTISRDNAKNSLYLQMNSLRAEDTAVYYCARGGGSYAFDYWGQGTLVTVSS
VL: not shown
notes: as for B2
B4: the values for the binding result in test [11], in test [12] and in test [13] were “binds”, “no binding (tested: 1 ug/ml)” and “no binding (tested: 1 ug/ml)”, respectively.

B5: murine anti-SEZ6L2 antibody mu2E4 (antibody, V domains shown)
VH: EVKLVESGGVLVKPGGSLKLSCAASGFTFSKYAMSWVRQTPEKRLEWVATISSGGSYTYYPDSVKGRFTISRDNARNTLYLQMSSLRSEDTAIYYCTREGGYDEGYAMDYWGQGTTLTVS
VL: DVVMTQTPLSLPVSLGDQASISCRSSQSLVHSYGNTYLHWYLQKPGQSPKLLIYKVSNRFSGVPDRFSGSGSGTDFTLKISRVEAEDLGVYFCSQSTHFRTFGGGTKLEIK
notes: Mouse hybridoma antibody
For the molecule B5, the binding result in test [14] is “binds”.

B6: murine anti-SEZ6L2 antibody mu3E2 (antibody, V domains shown)
VH: EVLLVESGGRLVQPKGSLKLSCAASGFSFNTITMNWVRQAPGKGLEWVARIRSKSNNYATYYADAVKDRFTISRDDSQSMLYLQMNNLKTEDTAMYFCVRGIFSGYVYAMDYWGQGTTLTVSS
VL: DVVMTQSPLSLPVSVGDQASISCRSSQSIVHSNGNTYLEWYLQKPGQSPKVLIYKVSNRFSGVPDRFSGSGSGTDFTLKISRVEAEDLGVYYCFQGSHVPYTFGGGTKLEIK
notes: Mouse hybridoma antibody
For the molecule B6, the binding result in test [14] is “binds”.

B7: humanized anti-SEZ6L2 antibody 2E4 (antibody, human IgG1, V domains shown)
VH: EVKLVESGGVLVKPGGSLRLSCAASGFTFSKYAMSWVRQAPGKGLEWVSTISSGGSYTYYPDSVKGRFTISRDNARNSLYLQMNSLRAEDTAIYYCTREGGYDEGYAMDYWGQGTTVTVSS
VL: DIVMTQSPDSLAVSLGERATINCRSSQSLVHSYGNTYLHWYQQKPGQPPKLLIYKVSNRFSGVPDRFSGSGSGTDFTLTISSLQAEDVAVYFCSQSTHFRTFGGGTKVEIKR
notes: also called 2E4:4D2
Regarding B7, the binding result in test [15] and in [16] was “no binding (tested: 1 ug/ml)” throughout. The Kd in test [1] was found to be 7 nM; in test [2] it was 12 nM.

What is called Kd is the constant that tells how readily two partners part at equilibrium.

The record behind these values is US20210130454A1 (BLUEFIN BIOMEDICINE, published 2021).
